For the assay, the target named is His-vimentin, purified recombinant, polymerized (UniProt P08670). Description: co-sedimentation.
Sequence of His-vimentin, purified recombinant, polymerized (P08670 whole entry): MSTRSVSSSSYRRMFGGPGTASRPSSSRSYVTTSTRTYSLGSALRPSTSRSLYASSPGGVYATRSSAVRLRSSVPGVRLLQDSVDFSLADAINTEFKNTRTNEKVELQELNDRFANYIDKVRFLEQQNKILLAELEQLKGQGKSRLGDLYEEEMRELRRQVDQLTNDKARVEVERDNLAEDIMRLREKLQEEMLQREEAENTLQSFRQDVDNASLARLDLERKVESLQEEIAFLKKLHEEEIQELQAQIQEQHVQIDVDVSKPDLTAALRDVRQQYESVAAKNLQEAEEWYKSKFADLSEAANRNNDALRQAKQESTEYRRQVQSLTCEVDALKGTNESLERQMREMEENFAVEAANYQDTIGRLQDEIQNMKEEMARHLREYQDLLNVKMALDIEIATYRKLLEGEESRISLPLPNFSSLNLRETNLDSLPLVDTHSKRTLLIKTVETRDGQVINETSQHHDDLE

On to “adenomatous polyposis coli (APC), endogenous in rat primary astrocytes, P70478 1-2842”, for which the percent of total APC cosedimented came out at 18.5%.
